Assay results reported in patent US20210355166A1, “[…] METHODS OF USE THEREOF” (priority 2018, published 2021).
Non-standard residues stand in square brackets, D forms with d. Residues, ends and D or L forms follow the SMILES beside them. No end group written: not given here. *: point of attachment. βGlc = OC[C@H]1O[C@@H](*)[C@H](O)[C@@H](O)[C@@H]1O; Dmt = Cc1cc(O)cc(C)c1C[C@H](N)C(=O)O

B1: H-FGVy-NH2 (peptide)
peptide: H-FGV[dY]-NH2
SMILES: CC(C)[C@H](NC(=O)CNC(=O)[C@@H](N)Cc1ccccc1)C(=O)N[C@H](Cc1ccc(O)cc1)C(N)=O
B2: bilaid B (H-FvVy-OH) (peptide)
peptide: H-F[dV]V[dY]-OH
SMILES: CC(C)[C@H](NC(=O)[C@H](NC(=O)[C@@H](N)Cc1ccccc1)C(C)C)C(=O)N[C@H](Cc1ccc(O)cc1)C(=O)O
B3: H-FvVy-NH2 (peptide)
peptide: H-F[dV]V[dY]-NH2
SMILES: CC(C)[C@H](NC(=O)[C@H](NC(=O)[C@@H](N)Cc1ccccc1)C(C)C)C(=O)N[C@H](Cc1ccc(O)cc1)C(N)=O
B4: bilaid A (H-FvVf-OH; L-Phe-D-Val-L-Val-D-Phe) (peptide)
peptide: H-F[dV]V[dF]-OH
SMILES: CC(C)[C@H](NC(=O)[C@H](NC(=O)[C@@H](N)Cc1ccccc1)C(C)C)C(=O)N[C@H](Cc1ccccc1)C(=O)O
notes: Natural product of Penicillium sp; MST-MF667; made by Fmoc synthesis for the assays; also called 1a; peptide 1a
B5: bilaid C (H-YvVf-OH; L-Tyr-D-Val-L-Val-D-Phe) (peptide)
peptide: YVVF
modifications: D-Val at 2; D-Phe at 4; free C-terminal acid
notes: Natural product of Penicillium sp; MST-MF667; made by Fmoc synthesis; also called 3a; peptide 3a
B6: H-FvGy-NH2 (L-Phe-D-Val-Gly-D-Tyr-NH2) (peptide)
peptide: H-F[dV]G[dY]-NH2
SMILES: CC(C)[C@@H](NC(=O)[C@@H](N)Cc1ccccc1)C(=O)NCC(=O)N[C@H](Cc1ccc(O)cc1)C(N)=O
notes: also called 2d; peptide 2d

Key:
C57BL/6 mice = assay: Nociception (analgesia) testing on 54 C hotplate; type: in vivo, mouse; details: 54° C. hotplate, s.c.
Experimental: Experiments were performed under the guidelines of the Australian code of practice for the care and use of animals for scientific purposes (National Health and Medical Research Council, Australia, 7th Edition). Great care was taken to minimise animal suffering during these experiments and to reduce the number of animals used. […] Food and water was available ad libitum. Mice were given at least 7 days to habituate to housing facilities prior to handling, and handled by the experimenter for 4 days prior to testing. […] The experimenter was blind to all drugs tested. Animals were tested on a 54° C. hotplate, with a maximum cut-off time of 20 seconds to prevent tissue damage. Endpoints were hindpaw lick, hindpaw flutter or jump. […] The percentage of maximal possible effects (% MPE) were calculated as follows: % MPE=(test latency−baseline latency)/(cutoff latency−baseline latency)×100%. The cut-off latency was 20 seconds. Significant differences were assessed with a two-way ANOVA and Tukey's post hoc multiple comparisons test. […] Doses were transformed to the logarithm of μmol/kg. A two-way ANOVA was used to compare data at equimolar doses.

human MOPr (hMOPr) = biological target: T1, human MOPr (hMOPr) (Homo sapiens, UniProt P35372); assay: Inhibition of forskolin induced cAMP formation in HEK cells expressing hMOPr; type: cell-based; details: for TetraQ, initial screen % inhibition of forskolin-stimulate cAMP formation in hMOPr HEK cells: 10 um; for activity in cAMP screen: 10 μM
T1 construct: expressed in transfected cells; host or cells: HEK cells
T1 sequence (P35372 whole entry): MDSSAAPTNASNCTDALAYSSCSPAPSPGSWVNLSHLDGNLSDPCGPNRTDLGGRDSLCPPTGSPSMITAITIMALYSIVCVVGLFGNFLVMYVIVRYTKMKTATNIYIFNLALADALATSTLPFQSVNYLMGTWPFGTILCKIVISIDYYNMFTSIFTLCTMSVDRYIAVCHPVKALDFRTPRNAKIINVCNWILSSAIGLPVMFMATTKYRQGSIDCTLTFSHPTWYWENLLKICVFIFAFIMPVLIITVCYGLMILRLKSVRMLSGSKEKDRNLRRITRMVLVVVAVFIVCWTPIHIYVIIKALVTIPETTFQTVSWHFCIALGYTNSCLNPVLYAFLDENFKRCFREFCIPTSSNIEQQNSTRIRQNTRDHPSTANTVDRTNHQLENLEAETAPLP
Experimental: Procedure for measuring the level of intracellular cAMP produced upon modulation of adenylate cyclase activity by G-protein-coupled receptors (GPCRs). To test the functional interaction between opioids, and opioid-like compounds, and specific opioid GPCRs by measuring changes in intracellular cAMP levels relative to basal levels. The assay can measure agonist and antagonist activity on GPCRs by stimulating cells to either increase or decrease intracellular cAMP levels.
The assay is performed in a 384-well plate and each data point is performed in triplicate. The test compounds should be analyzed on the same plate as controls and cAMP standards. The number of compounds to be screened for activity will determine the volume of reagents and cells required for each experiment. The test compounds, controls and cAMP standards can be added to the plate in advance or while the cells are incubating with stimulation buffer. The plate should be sealed with TopSeal adhesive sealing film to avoid evaporation.
Assay background: Detection of cAMP is based on the competition between intracellular cAMP and biotinylated cAMP linked streptavidin-coated donor beads for anti-cAMP conjugated acceptor beads. When the donor and acceptor beads are in close proximity a signal emitted at 520-620 nm is detected using the Envision multilabel plate reader.
Preparation of test peptides: Test peptides are typically tested at a final concentration of 10 μM. As most test peptides are dissolved in 100% DMSO it is recommended that the DMSO concentration is limited to 2% v/v during cell stimulation to ensure maximum cell viability and responsiveness. Prepare 1 mM and 100 μM stock solutions of test peptides in an appropriate diluent and store at 4° C. For a library of peptides this can be performed in 96 well plates sealed with silicon sealing mats. Test peptides are diluted fresh from stock solutions to a working concentration in stimulation buffer with forskolin. It should be noted that as peptides are diluted 1:1 with cells in the assay the working concentration should be twice the final required concentration. It may be necessary to perform assays on compounds freshly diluted from DMSO stocks compounds to avoid experimental variability.
Preparation of cells: For best results cells should be low passage at 70-90% confluence. To prepare cells for the assay remove growth medium, add Versene and then incubate at 37° C. for approximately 5 minutes to allow cells to detach from the tissue culture plastic. Collect cells and centrifuge for 2 minutes at 275×g. Decant the supernatant and resuspend the cell pellet in 1×PBS. Determine the cell concentration using a haemocytometer. Re-centrifuge cells for 2 minutes at 275×g and decant supernatant. Resuspend cells in stimulation buffer to a final concentration of 1-4×10^4 cells per ml. Note that the cells number will influence the cAMP levels prevailing before (basal) and after adenylate cyclase activation. A cell titration should be performed to optimize the difference between basal and stimulation levels of cAMP. Cells are incubated in stimulation buffer for 20 to 30 minutes at 37° C. prior to adding 5 μl to wells containing test and control compounds. Note that cells are not added to the cAMP standards.
1. Add standards (10 μl/well), control compounds (5 μl/well) and test peptides (5 μl/well) into 384-well plates and seal with Top Seal adhesive sealing film. Leave at room temperature until the cell incubation is complete. 2. Add 5 μl cells incubated in stimulation buffer to the wells containing test peptides and control compounds, but not to the standards. Incubate cells and compounds for 30 min at 37° C. 3. Add 10 μl lysis buffer per well. 4. Under subdued lighting add 5 μl acceptor bead solution to each well. Wrap plate in foil and incubate at room temperature with gentle mixing on an orbital shaker for 60 min. 5. […]

[1] = biological target: T2, human µ-opioid receptor (hMOPr), human recombinant MOPr expressed in HEK-293 cells (human, UniProt P35372 1-400); assay: cell-based or functional assay
T2 sequence (P35372 whole entry): as above

[2] = biological target: T2, human µ-opioid receptor (hMOPr), human …; assay: competition with [3H]DAMGO (0.5 nM), membranes with human recombinant MOPr (HEK-293), filtration and scintillation counting
Experimental: The specific ligand binding to the receptors is defined as the difference between the total binding and the nonspecific binding determined in the presence of an excess of an unlabelled opioid ligand (naloxone, 10 μM). The results are expressed as a percent of control specific binding ((measured specific binding/control specific binding)×100) obtained in the presence of unlabelled peptides of interest. The IC₅₀ values (concentration causing a half-maximal inhibition of control specific binding) and Hill coefficients (nH) were determined by non-linear regression analysis of the competition curves generated with mean replicate values using Hill equation curve fitting (Y=D+[(A−D)/(1+(C/C₅₀nH)], where Y=specific binding, D=minimum specific binding, A=maximum specific binding, C=compound concentration, C₅₀=IC₅₀, and nH=slope factor).

Row | Molecule | TetraQ, initial screen % inhibition of forskolin-stimulate cAMP formation in hMOPr HEK cells (human MOPr (hMOPr)) | % inhibition of forskolin-stimulate cAMP formation in hMOPr HEK cells (10 um) [1] [%] | other results
1 | 2,6-dimethyl-L-tyrosine-D-Val-L-Val-D-Phe-L-Ser(β-D-Glc)-NH2 ([Dmt][dV]V[dF]S(βGlc)-NH2; N-terminus assumed; SMILES Cc1cc(O)cc(C)c1C[C@H](N)C(=O)N[C@@H](C(=O)N[C@H](C(=O)N[C@H](Cc1ccccc1)C(=O)N[C@@H](CO[C@@H]1O[C@H](CO)[C@@H](O)[C@H](O)[C@H]1O)C(N)=O)C(C)C)C(C)C) [peptide 3h] | – | – | analgesic activity after systemic administration (C57BL/6 mice): systemically inactive
2 | C[C@@H](NC(=O)[C@@H](N)Cc1ccc(O)cc1)C(=O)NCC(=O)N(C)[C@@H](Cc1ccccc1)C(=O)NCCO [DAMGO, [D-Ala^2, N-MePhe^4, Gly^5-ol]-enkephalin, reference compound] | DAMGO = 94%) | – | –
3 | CC(C)[C@H](NC(=O)[C@H](NC(=O)[C@@H](N)Cc1ccccc1)C(C)C)C(=O)N[C@H](Cc1ccccc1)C(=O)O [peptide 1a, L-Phe-D-Val-L-Val-D-Phe] (H-F[dV]V[dF]-OH) | 21% | – | activity in cAMP screen (human MOPr (hMOPr)): showed activity
4 | CC(C)[C@@H](NC(=O)[C@@H](N)Cc1ccccc1)C(=O)NCC(=O)N[C@H](Cc1ccc(O)cc1)C(N)=O [peptide 2d, L-Phe-D-Val-Gly-D-Tyr-NH2] (H-F[dV]G[dY]-NH2) | 31% | – | –
5 | CC(C)[C@H](NC(=O)[C@H](NC(=O)[C@@H](N)Cc1ccc(O)cc1)C(C)C)C(=O)N[C@H](Cc1ccccc1)C(=O)O [peptide 3a, L-Tyr-D-Val-L-Val-D-Phe] | – | – | activity in cAMP screen (human MOPr (hMOPr)): showed activity
6 | H-FGGy-NH2 (H-FGG[dY]-NH2; SMILES NC(=O)[C@@H](Cc1ccc(O)cc1)NC(=O)CNC(=O)CNC(=O)[C@@H](N)Cc1ccccc1) [2f] | 0% | – | –
7 | H-FGVy-NH2 (H-FGV[dY]-NH2; SMILES CC(C)[C@H](NC(=O)CNC(=O)[C@@H](N)Cc1ccccc1)C(=O)N[C@H](Cc1ccc(O)cc1)C(N)=O) [2e] | 0% | – | –
8 | H-FVVY-NH2 [2c] | 0% | – | –
9 | H-FVvf-NH2 [1g] | 0% | – | –
10 | H-FVvf-OH [1c] | 0% | – | activity in cAMP screen (human MOPr (hMOPr)): inactive
11 | H-FvVy-NH2 [2b] | 0% | – | activity in cAMP screen (human MOPr (hMOPr)): Neither Bilaid B (2a) nor its C-terminal carboxamide analogue (2b) showed activity
12 | H-FvVy-OH (H-F[dV]V[dY]-OH; SMILES CC(C)[C@H](NC(=O)[C@H](NC(=O)[C@@H](N)Cc1ccccc1)C(C)C)C(=O)N[C@H](Cc1ccc(O)cc1)C(=O)O) [2a] | 0% | – | activity in cAMP screen (human MOPr (hMOPr)): Neither Bilaid B (2a) nor its C-terminal carboxamide analogue (2b) showed activity
13 | H-fVvF-NH2 [1f] | 0% | – | –
14 | H-fVvF-OH [1b] | 0% | – | activity in cAMP screen (human MOPr (hMOPr)): inactive
15 | H-fvVF-OH [1d] | 0% | – | –
16 | FVVF (D-Phe at 1; D-Val at 3; C-terminal amide) [H-fVvF-NH2] | – | 0 | –
17 | B1 | – | 0 | –
18 | H-FGG[dY]-NH2 (SMILES NC(=O)[C@@H](Cc1ccc(O)cc1)NC(=O)CNC(=O)CNC(=O)[C@@H](N)Cc1ccccc1) [H-FGGy-NH2] | – | 0 | –
19 | B2 | – | 0 | –
20 | FVVF (D-Val at 3; D-Phe at 4; C-terminal amide) [H-FVvf-NH2] | – | 0 | –
21 | H-[dF]V[dV]F-OH [H-fVvF-OH] | – | 0 | –
22 | H-FVVY-NH2 [H-FVVY-NH2] | – | 0 | –
23 | B3 | – | 0 | –
24 | B4 | – | 21 | Ki [2]: 3100 nM
25 | B5 | – | 77 | Ki [2]: 210 nM
26 | H-FV[dV][dF]-OH [H-FVvf-OH] | – | 0 | –
27 | B6 | – | 31 | Ki [2]: 1600 nM
28 | H-[dF][dV]VF-OH [H-fvVF-OH] | – | 0 | –
